In US20240360224A1 (ORIONIS BIOSCIENCES, published 2024):

Target: T1, human Clec9A (human, UniProt Q6UXN8 1-241)
T1 construct: Expressed on transfected CHO-K1, HEK293-T and HL116 cells, or native on human dendritic cells; also called hClec9A; C-type lectin domain family 9 member A
Test: flow cytometry on HEK293-T cells transfected with human Clec9A; His-tagged VHH at 2 µg/ml, anti-His FITC antibody; single concentration
Method: The binding characteristics of various VHHs (as described in Example 1) were tested by flow cytometry. HEK293-T cells were transfected with a human Clec9A expression plasmid and stained with the His-tagged VHHs at 2 μg/ml, followed by staining with an anti-His Fitc conjugated antibody. Binding was measured by detecting cellular fluorescence via flow cytometry.

T1 sequence (Q6UXN8 whole entry, the tested form may be a part): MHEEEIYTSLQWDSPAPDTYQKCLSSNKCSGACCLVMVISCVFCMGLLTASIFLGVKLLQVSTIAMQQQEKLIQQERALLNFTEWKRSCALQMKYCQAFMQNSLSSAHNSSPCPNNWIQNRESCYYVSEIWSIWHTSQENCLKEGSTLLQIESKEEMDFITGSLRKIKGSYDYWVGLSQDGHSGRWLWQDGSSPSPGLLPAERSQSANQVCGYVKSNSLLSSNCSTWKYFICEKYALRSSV

Row | Binder | binding result
1 | 2LEC 6 (VHH, Entry includes C-terminal AAA-HA-His6 (pMECS)) VHH: QVQLQESGGGWVQPGGSLRLSCAATGSIVSINAIGWYRQAPGKQRELVASITNQGIRNYSTSVMGRFTISRDDVKNTVSLQMNSLKPEDSAVYYCKGFAGWGKEDYWGQGTQVTVSS | binds
2 | 3LEC 66 (VHH, Entry includes C-terminal AAA-HA-His6 (pMECS)) VHH: QVQLQESGGGLVQPGGSLRLSCAASRSFFSFNAMGWYRQAPGKQRELVAAITNGGRIAYGTSVMGRFTISRDNAKNTVYLQMDSLKPEDTAVYYCNAKPAPVYGSTVGDYWGQGTQVTVSS | binds
3 | 1LEC 28 (VHH, Entry includes C-terminal AAA-HA-His6 (pMECS)) VHH: QVQLQESGGGLVQSGGSLRLSCAASGSVFSINAWGWYRQAPGKQRELVAAITNQGRIAYAPSVNGRFTISRDSAKNTVYLQMNSLKPEDTAVYYCNAKPTPVYGSTVGDYWGQGTQVTVSS | binds
4 | 2LEC 16 (VHH, Entry includes C-terminal AAA-HA-His6 (pMECS)) VHH: QVQLQESGGGLVQPGGSLRLSCLASRSFSSFNAMGWYRQAPGKERELVAAITNGGRIAYGIAVNGRFTISRDNAKNTVYLQMNSLKPEDTAVYYCNAKPTPVYGSTVGDYWGQGTQVTVSS | binds
5 | 2LEC 59 (VHH, Entry includes C-terminal AAA-HA-His6 (pMECS)) VHH: QVQLQESGGGLVQPGGSLRLSCAVSRNFFSINAMGWYRQAPGKQRELVAAITNGGRIAYGTSVMGRFTISRDDAKNTVDLQMNSLRPEDTAVYYCNAKAIPVYGSTVEDYWGQGTQVTVSS | binds
6 | 2LEC 13 (VHH, Entry includes C-terminal AAA-HA-His6 (pMECS)) VHH: QVQLQESGGGLVQAGASLRLSCAASGSIFSINAMGWYRQAPGKQRELVAAITNQGRTTYADSVKGRFTISRDNAKNTVYLQMDSLEPEDTAIYYCKGFSPTGDYWGQGTQVTVSS | binds
7 | 2LEC 90 (VHH, Entry includes C-terminal AAA-HA-His6 (pMECS)) VHH: QVQLQESGGGLVQTGGSLRLSCAASGSIFSFNAMGWYRQAPGKQRELVAAITDGGRLTYADSAKGRFTISRENTRNTVHLQMSSLKAEDTADYYCTIWTRDRQQYWGQGTQVTVSS | binds
8 | 3LEC 55 (VHH, Entry includes C-terminal AAA-HA-His6 (pMECS)) VHH: QVQLQESGGGLVQPGGSLKLSCAASGSIFSFNAMGWYRQAPGKQRELVAAITDGGRLTYADSAKNRFTISRENTRNTVHLQMSSLKAEDTAVYYCTIWTKDRQQYWGQGTQVTVSS | binds
9 | 2LEC 26 (VHH, Entry includes C-terminal AAA-HA-His6 (pMECS)) VHH: QVQLQESGGGLVETGGSLRLSCAASGSIFSINAMGWYRQAPGKQRELVAAITDQGRLAYADSAKGRFTISRENARNTLHLQMSSLKAEDTAVYYCTIWDRDRQQYWGQGTQVTVSS | binds
10 | 2LEC 93 (VHH, Entry includes C-terminal AAA-HA-His6 (pMECS)) VHH: QVQLQESGGGLVQAGGSLRLSCAASGSIFSINAMGWYRPALGEQRELVAAITTGGRTTYVDSVKGRFSISRDNAKNTVYLQMNSLKPEDTAVYFCKAFTRDEDFWGQGTQVTVSS | binds
11 | 1LEC 30 (VHH, Entry includes C-terminal AAA-HA-His6 (pMECS)) VHH: QVQLQESGGGLVQAGGSLRLSCAASGSILSINSMGWYRPALGNQRELVAAITNDGRTTYVDSVKGRFTISRDNAKNTVYLQMNSLKPEDTAVYWCKAFTRDKDYWGQGTQVTVSS | binds
12 | 2LEC 55 (VHH, Entry includes C-terminal AAA-HA-His6 (pMECS)) VHH: QVQLQESGGGLVQTGESLSLSCAVASGSIISINSMGWYRQAPEKQRELVAAITVDGRLAYADSAKHRFTISKESARNTVHLHMSSLKPEDTAVYYCTIWVRDGQQYWGQGTQVTVSS | binds
13 | 3LEC 11 (VHH, Entry includes C-terminal AAA-HA-His6 (pMECS)) VHH: QVQLQESGGGLVQPGGSLRLSCAASGSISSINAMGWYRQAPGKQRELVAAITGQGRTTYADSVKGRFTISRDGAKNTVYLQMNSLKPEDTAVYYCKVFAADGMEYWGKGTQVTVSS | binds
14 | 1LEC 92 (VHH, Entry includes C-terminal AAA-HA-His6 (pMECS)) VHH: QVQLQESGGGLVQPGGSLRLSCAASGSISSINAMGWYRQAPGNQRELVAAITNQGRVTYADSVKGRFTISRDGAKNTVYLQMNSLKPEDTAVYYCKVFAASGMEYWGKGTQVTVSS | binds
15 | 1LEC 9 (VHH, Entry includes C-terminal AAA-HA-His6 (pMECS)) VHH: QVQLQESGGGLVQAGGSLRLSCAASGSITSINAMGWYRQAPGKQRELVAAITSGGRLSYADSVKGRFTISRDNAESTVALQMNSLKPEDTAVYSCAAFQSSGIDWGQGTQVTVSS | binds
16 | 2LEC 54 (VHH, Entry includes C-terminal AAA-HA-His6 (pMECS)) VHH: QVQLQESGGGLAQPGGSLQLSCAASGRAFSTNSMGWYRQASGKQRELVAAITSQGRITLADSVKGRFTISSDNTKNTVFLQMNSLKPEDTAVYYCNAWTTLGTFGGQGTQVTVSS | binds
17 | 1LEC 62 (VHH, Entry includes C-terminal AAA-HA-His6 (pMECS)) VHH: QVQLQESGGGLVQPGGFLSLSCAASGSMHSVNSMAWYRQVPGKQRELVAAITSGGRLAYAPSVNGRFTISRDYAKNTIHLQMNSLEPEDTAVYYCAALNSATTYWGQGTQVTVSS | binds
18 | 2LEC 23 (VHH, Entry includes C-terminal AAA-HA-His6 (pMECS)) VHH: QVQLQESGGGLVQPGGSLRLSCAASGTSFSINGMAWYRQAPGGQRELVGGITSDGSTGYADSVKGRFTVSRDNAKNTVYLQMNRLKPEDTAVYYCGTSTPRGDSYWGQGTQVTVSS | binds
19 | 1LEC 7 (VHH, Entry includes C-terminal AAA-HA-His6 (pMECS)) VHH: QVQLQESGGGLVQPGGSLRLSCAASGRISSINSMGWYRQAPGNQRELVAAITNGGAKTYADSVKGRFTISTDNAGNTVYLQMDSLRPEDTAVYYCKAFTRRDDYWGQGTQITVSS | binds
20 | 2LEC 68 (VHH, Entry includes C-terminal AAA-HA-His6 (pMECS)) VHH: QVQLQESGGGLVQPGESLRLSCAASGSIFSINAMGWYRQAPGKQRELVAAITDGGAKTYADSVKGRFTISTDNAGNTVYLQMDSLRPEDTAVYYCKAFTRGNDYWGQGTQVTVSS | binds
21 | 1LEC 42 (VHH, Entry includes C-terminal AAA-HA-His6 (pMECS)) VHH: QVQLQESGGGLVQPGGSLRLSCAASGRVFSINAMGWYRQAPGKQRELVAAITNQGATTYADSVKGRFTISRDTAGNTVYLQMNSLRPEDTAVHYCKAFTRTDDYWGQGTQVTVSS | binds
22 | 1LEC 84 (VHH, Entry includes C-terminal AAA-HA-His6 (pMECS)) VHH: QVQLQESGGGLVQPGGSLRLSCAASGSIFSIAAMGWYRQAPGKQRELVAAITSGGRRAYADSVKGRFTISRDNDENTVALQMNSLKPEDTDVYYCNAKADHNDYWGQGTQITVSS | binds
23 | 1LEC 91 (VHH, Entry includes C-terminal AAA-HA-His6 (pMECS)) VHH: QVQLQESGGGLVQPGGSLRLSCAASGFTFDDYAIGWFRQAPGKEHEGVSCISRSDGSTYYDDSVKGRFTISSDNAKNTVYLQMNSLKPEDTAVYYCAAEVPSTYSCSGFREDYKGKGTQVTVSS | binds

The next lines start with the values.

Row | binding result | Binder
24 | binds | 3LEC 30 (VHH, Entry includes C-terminal AAA-HA-His6 (pMECS)) VHH: QVQLQESGGGLVQTGGSLRLSCAASGSIFSINSMGWYRQAPGKQRELVAAITSQGRSTYADSAKGRFTISLGNARNTVNLQMSSLKTEDTAVYYCTIWARDRQQYWGQGTQVTVSS
25 | binds | 1LEC 63 (VHH, Entry includes C-terminal AAA-HA-His6 (pMECS)) VHH: QVQLQESGGGLVQAGGSLRLSCAATGDISSINAMGWHRPARGNERELVAAITNGGRTTYVDSVKGRFTISRDNAKNTVYLQMNSLKPEDTAVYFCKAYTRDEDYWGQGTQVTVSS
26 | binds | 2LEC 53 (VHH, Entry includes C-terminal AAA-HA-His6 (pMECS)) VHH: QVQLQESGGGLVQAGGSLRLSCAASGSIDSINAMGWYRPALGEQRELVAAITTGGRTAYVDSVKGRFTISRDAAKNTVYLQMNSLKPEDTAVYSCKAFTRDTDYWGQGTQVTVSS
27 | binds | 3LEC 69 (VHH, Entry includes C-terminal AAA-HA-His6 (pMECS)) VHH: QVQLQESGGGLVQPGGSPRLSCAASGRFFRVNAMGWYRQAPGKQRELVAAITNGGQTAYADSVKGRFTISRDSAKNTVYLQMNSLKSEDTAVYYCKVFAADGMEYWGKGTQVTVSS
28 | binds | 1LEC 70 (VHH, Entry includes C-terminal AAA-HA-His6 (pMECS)) VHH: QVQLQESGGGLVQPGGSLRLSCAASGSIFSINAMGWYRQAPGKQRELVAAITNQGRLTYADSVKGRFTISRDNAKNTVFLQMDSLKPEDTAVYYCNAKWYDPLVIEYYDNWGQGTQVTVSS
29 | binds | 2LEC 48 (VHH, Entry includes C-terminal AAA-HA-His6 (pMECS)) VHH: QVQLQESGGGLVQAGGSLRLSCAASGTLFSINGMAWYRQAPGKRRELVGGITSDGSTGYADSVKGRFTISRDNAKNTAYLQMNSLKPEDTAVYYCGTSTPRGDSYWGQGTQVTVSS
30 | binds | 2LEC 38 (VHH, Entry includes C-terminal AAA-HA-His6 (pMECS)) VHH: QVQLQESGGGLVQPGGSLRLSCAASGRIFDINAMGWYRQAPGKQRELVAAITNGGQTTYADSVKGRFTISRDNAGNTVYLQMNSLRPEDTAVYYCKAFTRSDDYWGQGTQVTVSS
31 | binds | 3LEC 57 (VHH, Entry includes C-terminal AAA-HA-His6 (pMECS)) VHH: QVQLQESGGGLVQPGGSLRLSCAASGRISSINSMGWYRQAPGKQRELVAAITNGGAKTYADSVKGRFTISRDGAGNTVYLQMDNLRPEDTAVYYCKAFTRTYDYWGQGTQVTVSS
32 | binds | 3LEC 36 (VHH, Entry includes C-terminal AAA-HA-His6 (pMECS)) VHH: QVQLQESGGGLVQPGGSLRLSCAASGRIGSINSMGWYRQAPGKQREMVAAITNGGATVYADSVKGRFTISRDNAGNTVDLHMNSLRPEDSAVYYCKAFTRGDDYWGQGTQVTVSS
33 | binds | 1LEC 88 (VHH, Entry includes C-terminal AAA-HA-His6 (pMECS)) VHH: QVQLQESGGGLVQPGGSLRLSCAAIGNIASITAMGWYRQAPGKQRELVAAITSASASRTTYADSVKGRFTISRDNAKNTVYLQMNSLQPEDTAVYYCKGFRSGADDYWGQGTQVTVSS
